Data on two compounds can be found in US11207404B2, “Compositions and uses” (priority 2015, dated 2021).

The nature of data set [1]: Visual assessment of adverse effect on injection site in pigs. Format: in vivo. The note with it: extra dose of 150 μg of Compound A alone; 2 pigs. How it is done:
A brief adverse effect visual assessment on injection site was performed on 2 random chosen pigs by testing an extra dose of 150 μg of Compound A alone.

A short description of data set [2]: Antigen fragment solubility/stability (Table 1). Format: physicochemical. The source says:
Antigen (abbreviated as “Ag” herein) fragments employed in the present invention typically have certain properties useful in conjugation. In one aspect, the antigen fragments are proteins that are stable in solution and not prone to any substantial aggregation. In another aspect the antigen fragment contains a minimum of three available amines at which conjugation can occur and have a size of less than 500 kD.
Such fragments are readily commercially available and/or can be readily made by those skilled in the ar.

For `CCCCOc1nc(N)c2[nH]c(=O)n(CC3CCNCC3)c2n1` [Compound A], the “visual adverse effect of the injected site” value in data set [1] was “No visual adverse effect of the injected site was observed”.

A word on the Solubility: it is the concentration that dissolves in the medium under given conditions. A low value points to a poorly soluble substance. For Tetanus Toxoid, in data set [2], the Solubility amounted to 30 mg/mL and the Stability result is “years”.
